{"source": "patent US6136598", "key": {"[1]": {"biological_target": "Mus dunni endogenous virus (MDEV) receptor on M. dunni cells (Mus dunni)"}, "[2]": {"biological_target": "Mus dunni endogenous virus (MDEV) receptor on M. dunni cells (Mus dunni)", "remark": "listed apart in the source"}, "[3]": {"biological_target": "Mus dunni endogenous virus (MDEV) receptor on M. dunni cells (Mus dunni)", "remark": "listed apart in the source"}, "[4]": {"biological_target": "Mus dunni endogenous virus (MDEV) receptor on primary human dermal fibroblasts (human)"}}}
{"substance": "Mus dunni endogenous virus (MDEV) envelope protein", "values": [{"measurement": "Fold Interference, LAPSN(PD223) titer on dunni/N2 against dunni/N2 + MDEV (fold interference)", "setting": "[1]", "result": "> 20000"}, {"measurement": "log10 of the fold interference, LAPSN(MDEV) on dunni/LN cells infected with MDEV (log10 of the fold interference)", "setting": "[2]", "result": 5.5}, {"measurement": "LAPSN titer, MDEV pseudotype on M. dunni cells infected with MDEV (6 × 10^5 on uninfected cells)", "setting": "[3]", "result": 3, "unit": "FFU/ml"}, {"measurement": "inhibition of transduction, LAPSN(MDEV) on HDF cells infected with MDEV", "setting": "[4]", "result": 100, "unit": "fold"}]}
{"substance": "envelope protein of polytropic (MCF) virus strain 98D", "values": [{"measurement": "LAPSN titer, MDEV pseudotype on M. dunni cells infected with polytropic virus (6 × 10^5 on uninfected cells)", "setting": "[3]", "result": 400000, "unit": "FFU/ml"}]}
{"substance": "envelope protein of NZB xenotropic virus", "values": [{"measurement": "LAPSN titer, MDEV pseudotype on M. dunni cells infected with xenotropic virus (6 × 10^5 on uninfected cells)", "setting": "[3]", "result": 400000, "unit": "FFU/ml"}]}
{"substance": "Balb/c 3T3 IdU-induced retrovirus (BIRV) envelope", "values": [{"measurement": "LAPSN titer, BIRV pseudotype on M. dunni cells infected with MDEV (8 × 10^4 on uninfected cells)", "setting": "[3]", "result": 60000, "unit": "FFU/ml"}]}
{"substance": "envelope protein of amphotropic MLV strain 4070A", "values": [{"measurement": "Fold Interference, LAPSN(PA317) titer on dunni/N2 against dunni/N2 + MDEV (fold interference)", "setting": "[1]", "result": 1}]}
{"substance": "envelope protein of amphotropic virus (AM-MLV)", "values": [{"measurement": "LAPSN titer, MDEV pseudotype on M. dunni cells infected with amphotropic virus (6 × 10^5 on uninfected cells)", "setting": "[3]", "result": 400000, "unit": "FFU/ml"}]}
